Values quoted from earlier work as cited in article PMC5394133 (Clinical Drug Investigation, 2017).
Where two headings read alike, the source gives them in different places.

Conditions: for Maximum concentration, mean / Total exposure, mean: total insulin concentration

Substance | Maximum concentration, ratio thigh/abdomen (0.2 U/kg s.c.) | Maximum concentration, ratio upper arm/abdomen (0.2 U/kg s.c.) | Total exposure, ratio thigh/abdomen (0.2 U/kg s.c.) | Total exposure, ratio upper arm/abdomen (0.2 U/kg s.c.) | Maximum concentration, mean (0.2 U/kg s.c., abdomen) | Total exposure, mean (0.2 U/kg s.c., abdomen) | Maximum concentration, mean (0.2 U/kg s.c., thigh) | Total exposure, mean (0.2 U/kg s.c., thigh) | Maximum concentration, mean (0.2 U/kg s.c., upper arm) | Total exposure, mean (0.2 U/kg s.c., upper arm) | Maximum concentration, ratio thigh/abdomen (s.c.) | Maximum concentration, ratio upper arm/abdomen (s.c.) | Total exposure, ratio thigh/abdomen (s.c.) | Total exposure, ratio upper arm/abdomen (s.c.) | early exposure within 1 h after administration, lower for the thigh than for the abdomen (s.c.) | early exposure within 1 h after administration, lower for the upper arm than for the abdomen (s.c.)
Insulin aspart | 84% | 101% | 97% | 105% | 501 pmol/L | 1.3 nM·h | 422 pmol/L | 1.265 nM·h | 506 pmol/L | 1.361 nM·h | – | – | – | – | – | –
Insulin lispro | 78% | 67% | 92% | 95% | 589 pmol/L | 1.388 nM·h | 458 pmol/L | 1.277 nM·h | 395 pmol/L | 1.313 nM·h | – | – | – | – | – | –
Insulin glulisine | – | – | – | – | – | – | – | – | – | – | 68% | 82% | 93% | 97% | ~ 40% | ~ 20%
